Source: US20130330802A1
One block for each molecule: values may come before it.

Tests used:
[1] = target: mannose 6-phosphate (M6P) receptor on cultured human fibroblasts (CCD-1076SK) (human) (UniProt P11717); assay: cell-based or functional assay
[2] = target: His-tagged-hMPR9 (domain 9 of human mannose-6-phosphate receptor with C-terminal His-tag) (human) (UniProt P11717); assay: SPR (Biacore T100), His-tagged-hMPR9 on NTA chip, rhI2S as analyte
[3] = target: mannose 6-phosphate (M6P) receptor on cultured human fibroblasts (CCD-1076SK) (human), P11717; assay: cell-based or functional assay
Chain of mannose 6-phosphate (M6P) receptor on cultured human fibroblasts (CCD-1076SK) (human), P11717 (P11717 41-2491): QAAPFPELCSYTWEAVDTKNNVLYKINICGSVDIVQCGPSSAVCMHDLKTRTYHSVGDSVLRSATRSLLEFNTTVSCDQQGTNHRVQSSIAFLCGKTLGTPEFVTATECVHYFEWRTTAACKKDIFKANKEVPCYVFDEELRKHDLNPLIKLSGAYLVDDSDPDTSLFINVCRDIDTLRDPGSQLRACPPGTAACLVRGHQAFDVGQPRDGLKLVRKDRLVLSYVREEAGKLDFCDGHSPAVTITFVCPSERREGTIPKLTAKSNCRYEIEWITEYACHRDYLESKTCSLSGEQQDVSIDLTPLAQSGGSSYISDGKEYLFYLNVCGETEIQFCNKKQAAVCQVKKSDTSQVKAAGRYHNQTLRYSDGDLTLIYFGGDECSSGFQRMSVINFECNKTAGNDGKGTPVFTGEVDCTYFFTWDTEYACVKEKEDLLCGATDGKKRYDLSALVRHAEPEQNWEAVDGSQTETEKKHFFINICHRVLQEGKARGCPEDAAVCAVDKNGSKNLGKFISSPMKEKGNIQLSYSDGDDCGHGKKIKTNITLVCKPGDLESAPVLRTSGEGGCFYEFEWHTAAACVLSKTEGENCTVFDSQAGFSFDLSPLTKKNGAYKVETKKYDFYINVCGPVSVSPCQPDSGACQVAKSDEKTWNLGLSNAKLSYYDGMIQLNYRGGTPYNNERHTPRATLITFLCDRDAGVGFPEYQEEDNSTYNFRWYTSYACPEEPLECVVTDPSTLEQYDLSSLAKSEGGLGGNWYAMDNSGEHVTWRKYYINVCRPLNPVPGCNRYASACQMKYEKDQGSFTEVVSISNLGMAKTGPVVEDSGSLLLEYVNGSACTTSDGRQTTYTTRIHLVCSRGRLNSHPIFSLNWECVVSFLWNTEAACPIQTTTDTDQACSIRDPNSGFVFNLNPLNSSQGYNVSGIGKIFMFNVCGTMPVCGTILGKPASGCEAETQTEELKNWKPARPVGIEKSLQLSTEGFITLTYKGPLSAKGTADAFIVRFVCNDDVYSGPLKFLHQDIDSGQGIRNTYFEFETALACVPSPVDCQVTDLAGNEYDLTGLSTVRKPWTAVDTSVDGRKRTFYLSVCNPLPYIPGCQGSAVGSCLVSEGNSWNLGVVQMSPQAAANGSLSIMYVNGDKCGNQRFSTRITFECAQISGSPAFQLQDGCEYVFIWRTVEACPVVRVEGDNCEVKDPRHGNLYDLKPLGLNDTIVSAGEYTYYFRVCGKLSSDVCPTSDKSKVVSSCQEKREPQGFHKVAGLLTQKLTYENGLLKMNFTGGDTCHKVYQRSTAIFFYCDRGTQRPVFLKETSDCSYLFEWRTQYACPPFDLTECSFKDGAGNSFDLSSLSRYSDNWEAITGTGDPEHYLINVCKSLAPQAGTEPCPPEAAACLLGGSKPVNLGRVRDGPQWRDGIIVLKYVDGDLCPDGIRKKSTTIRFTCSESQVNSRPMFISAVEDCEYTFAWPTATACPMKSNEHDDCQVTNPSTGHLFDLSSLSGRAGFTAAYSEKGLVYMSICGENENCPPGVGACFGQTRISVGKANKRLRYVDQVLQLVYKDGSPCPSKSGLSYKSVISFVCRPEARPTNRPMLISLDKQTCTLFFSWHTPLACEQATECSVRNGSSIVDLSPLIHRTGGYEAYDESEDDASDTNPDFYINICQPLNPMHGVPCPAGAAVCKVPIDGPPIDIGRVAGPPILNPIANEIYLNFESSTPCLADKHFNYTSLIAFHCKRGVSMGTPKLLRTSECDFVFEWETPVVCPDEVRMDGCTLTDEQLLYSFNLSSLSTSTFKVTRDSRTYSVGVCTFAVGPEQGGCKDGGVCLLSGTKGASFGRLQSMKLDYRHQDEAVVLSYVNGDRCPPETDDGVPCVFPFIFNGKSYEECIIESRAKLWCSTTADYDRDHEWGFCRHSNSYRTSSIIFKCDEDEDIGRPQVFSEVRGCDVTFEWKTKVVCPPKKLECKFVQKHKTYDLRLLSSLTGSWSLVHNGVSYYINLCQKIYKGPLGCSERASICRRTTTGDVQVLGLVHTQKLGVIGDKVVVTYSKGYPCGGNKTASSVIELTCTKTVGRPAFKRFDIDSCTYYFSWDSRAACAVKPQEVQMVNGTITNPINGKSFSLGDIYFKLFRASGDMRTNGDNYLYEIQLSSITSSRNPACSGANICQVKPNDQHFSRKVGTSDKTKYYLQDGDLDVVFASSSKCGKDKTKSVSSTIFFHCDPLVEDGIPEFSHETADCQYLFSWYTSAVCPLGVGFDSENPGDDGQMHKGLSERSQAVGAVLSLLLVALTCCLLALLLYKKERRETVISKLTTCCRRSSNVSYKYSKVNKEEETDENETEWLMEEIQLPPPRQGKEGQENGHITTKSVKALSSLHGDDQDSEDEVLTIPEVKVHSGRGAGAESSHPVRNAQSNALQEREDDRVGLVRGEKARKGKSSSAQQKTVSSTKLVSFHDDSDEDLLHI

[4] = target: His-tagged-hMPR9 (domain 9 of human mannose-6-phosphate receptor with C-terminal His-tag) (human) (UniProt P11717); assay: SPR (Biacore T100), His-tagged-hMPR9 on NTA chip, rhI2S as analyte; average of lots 1-7
[5] = target: His-tagged-hMPR9 (domain 9 of human mannose-6-phosphate receptor with C-terminal His-tag) (human) (UniProt P11717); assay: SPR (Biacore T100), His-tagged-hMPR9 on NTA chip, rhI2S as analyte; low end of range over lots 1-7
[6] = target: His-tagged-hMPR9 (domain 9 of human mannose-6-phosphate receptor with C-terminal His-tag) (human) (UniProt P11717); assay: SPR (Biacore T100), His-tagged-hMPR9 on NTA chip, rhI2S as analyte; high end of range over lots 1-7

EC50 of cellular uptake (human fibroblasts, 18 hrs, rhI2S in lysate by ELISA) [1]: 1.46 µg/mL
Kd [2]: 3.32 nM
Molecule: commercially-available medicinal rhI2S (from UniProt P22304 26-550) (enzyme)

EC50 of cellular uptake (human fibroblasts, 18 hrs, rhI2S in lysate by ELISA) [3]: 0.452 µg/mL
B1: recombinant human iduronate 2-sulfatase (rhI2S) of the present invention (Lot Nos. 1-7), P22304 26-550 (enzyme)
chain: SETQANSTTDALNVLLIIVDDLRPSLGCYGDKLVRSPNIDQLASHSLLFQNAFAQQAVCAPSRVSFLTGRRPDTTRLYDFNSYWRVHAGNFSTIPQYFKENGYVTMSVGKVFHPGISSNHTDDSPYSWSFPPYHPSSEKYENTKTCRGPDGELHANLLCPVDVLDVPEGTLPDKQSTEQAIQLLEKMKTSASPFFLAVGYHKPHIPFRYPKEFQKLYPLENITLAPDPEVPDGLPPVAYNPWMDIRQREDVQALNISVPYGPIPVDFQRKIRQSYFASVSYLDTQVGRLLSALDDLQLANSTIIAFTSDHGWALGEHGEWAKYSNFDVATHVPLIFYVPGRTASLPEAGEKLFPYLDPFDSASQLMEPGRQSMDLVELVSLFPTLAGLAGLQVPPRCPVPSFHVELCREGKNLLKHFRFRDLEEDPYLPGNPRELIAYSQYPRPSDIPQWNSDKPSLKDIKIMGYSIRTIDYRYTVWVGFNPDEFLANFSDIHAGELYFVDSDPLQDHNMYNDSQGGDLFQLLMP
modifications: here or on the partner: glycosylated; linked oligosaccharide chains containing mannose-6-phosphate residues, 3.74-5.38 mol/mol (average 4.37 mol/mol)

Kd [4]: 1.04 nM
Kd [5]: 0.758 nM
Kd [6]: 1.23 nM
B2: recombinant human iduronate 2-sulfatase (rhI2S) of the present invention (Lot Nos. 1-7) (enzyme)
chain: SETQANSTTDALNVLLIIVDDLRPSLGCYGDKLVRSPNIDQLASHSLLFQNAFAQQAVCAPSRVSFLTGRRPDTTRLYDFNSYWRVHAGNFSTIPQYFKENGYVTMSVGKVFHPGISSNHTDDSPYSWSFPPYHPSSEKYENTKTCRGPDGELHANLLCPVDVLDVPEGTLPDKQSTEQAIQLLEKMKTSASPFFLAVGYHKPHIPFRYPKEFQKLYPLENITLAPDPEVPDGLPPVAYNPWMDIRQREDVQALNISVPYGPIPVDFQRKIRQSYFASVSYLDTQVGRLLSALDDLQLANSTIIAFTSDHGWALGEHGEWAKYSNFDVATHVPLIFYVPGRTASLPEAGEKLFPYLDPFDSASQLMEPGRQSMDLVELVSLFPTLAGLAGLQVPPRCPVPSFHVELCREGKNLLKHFRFRDLEEDPYLPGNPRELIAYSQYPRPSDIPQWNSDKPSLKDIKIMGYSIRTIDYRYTVWVGFNPDEFLANFSDIHAGELYFVDSDPLQDHNMYNDSQGGDLFQLLMP
modifications: glycosylated; linked oligosaccharide chains containing mannose-6-phosphate residues, 3.74-5.38 mol/mol (average 4.37 mol/mol)
